# B1: CPEB3 Ribozyme (parent)
# chain: UAACAGGGGGCCACAGCAGAAGCGUUCACGUCGCAGCCCCUGUCAGAUUCUGGUGAAUCUGCGAAUUCUGCUGUAUAUCUC
# Variants of: B1
# Assay: self-cleavage, relative activity (ratio to wild type); higher = more cleavage; in vitro, sequencing
# Method in brief: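 After error-prone PCR and barcoding, CPEB3 ribozyme mutant libraries were transcribed with T7 RNA polymerase at 37°C for 5 hours, then given 15 min with DNase I before an EDTA stop, and they cleaved during both steps. Reverse transcription with template switching preceded Illumina sequencing. Relative activity divides a variant's cleaved/total read fraction by the unmutated ribozyme's. At least 5 reads were required per variant, and three batches were averaged.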
row,Variant,self-cleavage
1,C17U U26G,0.09
2,A18G A28G,0.33
3,A18G A28C,0.38
4,A18G A28U,0.5
5,G16U U41C,0.41
6,G16C G24C,0.2
7,A18C C50A,0.12
8,A18C C50U,0.51
9,C17G U80A,0.37
10,A18C G33A,0.42
11,A18C G33U,0.13
12,A18C C38U,0.12
13,A18C U74C,0.58
14,A18C U74G,0.31
15,C17G G53C,0.45
16,C17G C32U,0.27
17,C17G C32G,0.23
18,A18C G42A,0.17
19,G16U U60G,0.21
20,G16C G52U,0.48
21,G16A U67A,0.34
22,G16A U67C,0.11
23,A18C U43A,0.64
24,A18C U43G,0.07

row,Variant,self-cleavage
1,A18C U43C,0.21
2,C17G A47G,0.28
3,G16C U74A,0.38
4,G16C U74C,0.25
5,C17U A28G,0.36
6,C17U A28U,0.41
7,C17U A28C,0.51
8,C17U C40U,0.21
9,G16U C23U,0.16
10,C17G U49C,0.06
11,A18C C27U,0.21
12,C17G A64U,0.17
13,C17G A64G,0.35
14,C17A U49C,0.19
15,C17U U43C,0.41
16,C17U U43A,0.98
17,C17U A57G,0.51
18,C17G U60G,0.25
19,C17G U60A,0.19
20,G16A U72C,0.79
21,G16A U72G,0.16
22,G16A U72A,0.36
23,A18C A56U,0.14
24,A18C A56G,0.17

row,Variant,self-cleavage
1,C17A U26A,0.36
2,G16C A64U,0.28
3,G16C U76C,0.41
4,C17U G61U,0.27
5,G16U U54G,0.55
6,C17U U69A,0.4
7,C17U U69G,0.25
8,C17U U69C,0.21
9,G16U G33C,0.09
10,G16U G33A,0.32
11,A18C G30A,0.31
12,G16C U54C,0.46
13,C17A U60C,0.18
14,C17A U60A,0.26
15,A18C C79A,0.9
16,G16C U78C,0.22
17,G16U U26A,0.26
18,G16U U26C,0.24
19,C17G G33A,0.24
20,A18C C37A,0.33
21,G16C A18U,0.28
22,C17U G53C,0.66
23,C17G A35G,1.04
24,C17G A35U,0.32

row,Variant,self-cleavage
1,G16U U80A,0.52
2,G16U U80C,0.7
3,C17U U76C,0.83
4,C17U C34A,0.16
5,C17U A75U,0.81
6,A18C U25C,0.27
7,A18C A47G,0.26
8,G16U A57G,0.26
9,A18C A57G,0.3
10,A18C A64G,0.38
11,C17A C62G,0.17
12,C17A A47G,0.28
13,C17A A47U,0.44
14,A18C A21G,0.21
15,C17G U51C,0.6
16,C17U A21C,0.12
17,C17U A21G,0.32
18,A18G A35G,1.06
19,A18G A35C,0.38
20,A18G A35U,0.27
21,C17A G53A,0.68
22,G16C U41C,0.42
23,G16U A18G,0.29
24,G16C A45U,0.13

row,Variant,self-cleavage
1,G16C A45G,0.42
2,G16U A28U,0.26
3,G16U A28G,0.18
4,G16U U69A,0.22
5,G16U U69C,0.13
6,C17A A21G,0.25
7,G16C A47G,0.25
8,C17A A57G,0.34
9,C17U A77G,0.69
10,G16U A56G,0.28
11,G16U U31C,0.19
12,A18C A35G,1.03
13,A18C A35U,0.16
14,C17U G30U,0.09
15,C17U U66C,0.23
16,A18C A45C,0.21
17,A18C A45U,0.1
18,A18C A45G,0.29
19,C17A U41A,0.1
20,C17A A28G,0.22
21,C17U U48A,0.24
22,C17U U48C,0.31
23,A18C U41A,0.32
24,A18C U41C,0.34

row,Variant,self-cleavage
1,A18C U41G,0.53
2,A18C C29U,0.31
3,C17A A35G,0.49
4,C17U G36A,0.17
5,C17G A65G,0.25
6,C17G A65U,0.19
7,A18C U69C,0.35
8,A18C U69A,0.52
9,A18C A20G,0.44
10,A18C A20U,0.15
11,C17G A75U,0.52
12,G16C A57G,0.57
13,G16C A56G,0.21
14,C17U C62A,0.11
15,A18C U67C,0.18
16,A18C C32U,0.43
17,G16U U74C,0.58
18,C17G U54A,0.54
19,C17U U25A,0.27
20,C17U U25C,0.25
21,C17U G46U,0.23
22,C17U A45G,0.65
23,A18C U49G,0.17
24,A18C U49C,0.29

row,Variant,self-cleavage
1,A18C A75G,0.41
2,A18G A47U,0.44
3,A18G A47G,0.66
4,A18G A47C,0.12
5,C17U A20G,0.45
6,C17U U58G,0.15
7,C17U U58C,0.17
8,A18G A57G,0.55
9,A18G A57U,0.36
10,A18G A57C,0.49
11,A18G A56U,0.35
12,A18G A56C,0.25
13,A18G A56G,0.55
14,C17U U80C,0.85
15,C17A A20G,0.3
16,G16U G61A,0.18
17,C17U G24C,0.11
18,C17A U25G,0.47
19,C17A U25C,0.2
20,C17U U60A,0.23
21,C17U U60C,0.21
22,C17U A65U,0.55
23,G16C U25C,0.21

# Reference: the RNAGym collection of RNA variant scans (doi:10.1093/nar/gkz1192)
